Like-named read-outs stand apart in the source and are kept apart here. Non-standard residues stand in square brackets, D forms with d. Primed or numbered codes have the meaning given here. No end group written: not given here. *: point of attachment. NH(3,5-(CF3)2-benzyl) = FC(F)(F)c1cc(CN*)cc(C(F)(F)F)c1; NMePhe(4-F) = CN[C@@H](Cc1ccc(F)cc1)C(=O)O; Phe(4-F) = N[C@@H](Cc1ccc(F)cc1)C(=O)O; Dmt = Cc1cc(O)cc(C)c1C[C@H](N)C(=O)O; NMeF = CN[C@@H](Cc1ccccc1)C(=O)O; 4‑Ampa = not defined here; 4‑Apac = not defined here; hSer = N[C@@H](CCO)C(=O)O; 4Abz = Nc1ccc(C(=O)O)cc1; 4Amb′ = not defined here; Orn = NCCC[C@H](N)C(=O)O; Dab = NCC[C@H](N)C(=O)O; Dap = NC[C@H](N)C(=O)O; NHBn = c1ccc(CN*)cc1; Ahx = NCCCCCC(=O)O; GABA = NCCCC(=O)O; βAla = NCCC(=O)O
Columns and labels:
Assay in all cases: competition
[1] = molecular target: mu opioid receptor (MOR) (UniProt P35372)
[2] = molecular target: T1, human NK1 receptor (human, UniProt P25103)
T1 chain: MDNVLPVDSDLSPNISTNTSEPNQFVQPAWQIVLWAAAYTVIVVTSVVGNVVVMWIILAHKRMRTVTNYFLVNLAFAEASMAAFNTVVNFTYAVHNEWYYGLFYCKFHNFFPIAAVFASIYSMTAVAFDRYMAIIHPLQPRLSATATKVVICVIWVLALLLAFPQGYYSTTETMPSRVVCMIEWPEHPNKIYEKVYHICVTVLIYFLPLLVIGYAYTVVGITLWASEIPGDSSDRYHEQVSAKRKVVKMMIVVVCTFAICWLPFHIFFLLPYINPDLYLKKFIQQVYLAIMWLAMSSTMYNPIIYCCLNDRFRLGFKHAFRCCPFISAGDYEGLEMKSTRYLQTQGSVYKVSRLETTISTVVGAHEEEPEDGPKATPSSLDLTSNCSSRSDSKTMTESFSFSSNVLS

[3] = molecular target: T2, rat NK1 receptor (rat, UniProt P14600)
T2 chain: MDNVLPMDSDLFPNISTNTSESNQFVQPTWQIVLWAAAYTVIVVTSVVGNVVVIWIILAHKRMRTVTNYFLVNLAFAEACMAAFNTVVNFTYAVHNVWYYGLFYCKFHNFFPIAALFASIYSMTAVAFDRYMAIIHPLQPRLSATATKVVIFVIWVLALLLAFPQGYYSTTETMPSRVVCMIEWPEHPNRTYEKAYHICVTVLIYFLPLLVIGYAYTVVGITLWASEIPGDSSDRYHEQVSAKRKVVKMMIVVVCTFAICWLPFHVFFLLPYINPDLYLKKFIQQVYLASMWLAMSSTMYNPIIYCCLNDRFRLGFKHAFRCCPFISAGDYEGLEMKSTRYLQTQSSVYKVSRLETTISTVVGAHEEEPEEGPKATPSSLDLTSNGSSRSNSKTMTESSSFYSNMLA

[4] = molecular target: T1, human NK1 receptor
[5] = molecular target: T2, rat NK1 receptor
[6] = molecular target: T3, delta opioid receptor (DOR) (UniProt P41143)
T3 chain: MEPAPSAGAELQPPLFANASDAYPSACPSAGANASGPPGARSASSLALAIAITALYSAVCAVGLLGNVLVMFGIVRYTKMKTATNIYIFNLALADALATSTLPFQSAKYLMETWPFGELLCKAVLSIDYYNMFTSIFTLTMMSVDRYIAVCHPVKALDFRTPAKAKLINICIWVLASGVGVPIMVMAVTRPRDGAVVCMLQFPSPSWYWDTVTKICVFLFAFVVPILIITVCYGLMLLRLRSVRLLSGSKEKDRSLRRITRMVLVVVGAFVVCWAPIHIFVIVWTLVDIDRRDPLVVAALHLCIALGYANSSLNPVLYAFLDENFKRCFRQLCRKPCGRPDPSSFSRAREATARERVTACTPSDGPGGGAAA

[7] = molecular target: mu opioid receptor (MOR) (UniProt P35372); remark: listed apart in the source
[8] = molecular target: T1, human NK1 receptor
[9] = molecular target: T3, delta opioid receptor (DOR)
[10] = molecular target: mu opioid receptor (MOR) (UniProt P35372); remark: listed apart in the source
[11] = molecular target: T2, rat NK1 receptor
[12] = molecular target: T3, delta opioid receptor (DOR)

mu opioid receptor (MOR), sequence (P35372 whole entry): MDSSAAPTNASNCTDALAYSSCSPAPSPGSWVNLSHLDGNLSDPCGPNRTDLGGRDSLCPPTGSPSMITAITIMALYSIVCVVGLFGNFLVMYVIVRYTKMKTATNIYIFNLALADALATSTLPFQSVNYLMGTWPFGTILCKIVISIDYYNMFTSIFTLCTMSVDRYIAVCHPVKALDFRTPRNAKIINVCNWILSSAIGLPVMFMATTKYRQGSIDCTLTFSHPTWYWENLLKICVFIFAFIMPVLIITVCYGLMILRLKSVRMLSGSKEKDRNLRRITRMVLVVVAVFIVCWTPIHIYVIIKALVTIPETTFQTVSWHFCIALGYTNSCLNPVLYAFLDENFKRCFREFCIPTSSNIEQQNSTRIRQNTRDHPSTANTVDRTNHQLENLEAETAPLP

B1: AKG192 (peptide)
chain: XAGFPLW
modifications: Dmt1, D-Ala2, Phe(4-Br)4; C-terminal NH-Bn(3',5'-(CF3)2)
[1]
  Ki: 5 nM
[2]
  Ki: 2.54 nM

B2: AKG181 (peptide)
chain: XAGFPLW
modifications: Dmt1, D-NMeAla2; C-terminal NH-Bn(3',5'-(CF3)2)
[3]
  Ki: 26.4 nM
[2]
  Ki: 4.81 nM

B3: AKG172 (peptide)
chain: Y[dA]G[NMeF][Dab]PLW-NHBn
[4]
  Ki: 3.05 nM
[5]
  Ki: 8.24 nM
[6]
  Ki: 100 nM
[7]
  Ki: 8 nM

B4: AKG128 (peptide)
chain: XAGFPLW
modifications: Dmt1, D-Ala2, NMePhe(4-F)4; C-terminal NH-Bn(3',5'-(CF3)2)
[1]
  Ki: 1 nM
[3]
  Ki: 33.8 nM
[2]
  Ki: 2.62 nM

B5: AKG123 (peptide)
chain: Y[dA]G[NMeF][GABA]PLW-{NH(3,5-(CF3)2-benzyl)}
[8]
  Ki: 1.56 nM
[9]
  Ki: 3 nM
[10]
  Ki: 9 nM

B6: AKG180 (peptide)
chain: XAGFPLW
modifications: Dmt1, D-Ala2, NMeGly3; C-terminal NH-Bn(3',5'-(CF3)2)
[3]
  Ki: 17.1 nM
[2]
  Ki: 2.86 nM

B7: AKG107 (peptide)
chain: XAGFMPLW
modifications: not fully specified; Dmt1, D-Ala2, NMePhe4 as described; C-terminal benzylamide
[11]
  Ki: 13.6 nM
[8]
  Ki: 1.97 nM

B8: AKG190 (peptide)
chain: Y[dA]G[Phe(4-F)]PLW-{NH(3,5-(CF3)2-benzyl)}
[1]
  Ki: 4 nM
[12]
  Ki: 0.2 nM
[3]
  Ki: 34.4 nM
[2]
  Ki: 5.61 nM

B9: AKG101 (peptide)
chain: Y[dA]GF[dS]PLW-NHBn
[4]
  Ki: 2.77 nM
[5]
  Ki: 108 nM
[6]
  Ki: 34 nM
[7]
  Ki: 196 nM

B10: AKG174 (peptide)
chain: Y[dA]G[NMeF]KPLW
modifications: not fully specified (C-terminus)
[4]
  Ki: 3.18 nM
[5]
  Ki: 7.31 nM
[7]
  Ki: 8 nM

B11: AKG119 (peptide)
chain: Y[dA]G[NMeF][βAla]PLW-{NH(3,5-(CF3)2-benzyl)}
[11]
  Ki: 29.4 nM
[8]
  Ki: 0.93 nM
[9]
  Ki: 46 nM
[10]
  Ki: 8 nM

B12: AKG178 (peptide)
chain: Y[dA]G[NMeF][4‑Ampa]PLW-{NH(3,5-(CF3)2-benzyl)}
modifications: reading uncertain
[11]
  Ki: 72.3 nM
[8]
  Ki: 3.5 nM
[9]
  Ki: 100 nM

B13: AKG131 (peptide)
chain: Y[dA]G[NMePhe(4-F)]GPLW-{NH(3,5-(CF3)2-benzyl)}
[11]
  Ki: 89.1 nM
[8]
  Ki: 2.14 nM
[9]
  Ki: 17 nM
[10]
  Ki: 185 nM

B14: AKG039 (peptide)
chain: Y[dA]GF[hSer]PLW-NHBn
[4]
  Ki: 1.32 nM
[5]
  Ki: 148 nM
[6]
  Ki: 6 nM
[7]
  Ki: 116 nM

B15: AKG176 (peptide)
chain: Y[dA]G[NMeF][4Abz]PLW-{NH(3,5-(CF3)2-benzyl)}
[11]
  Ki: 77.8 nM
[8]
  Ki: 4.12 nM
[9]
  Ki: 82 nM
[10]
  Ki: 1 nM

B16: AKG171 (peptide)
chain: Y[dA]G[NMeF][Dap]PLW-NHBn
[4]
  Ki: 2.98 nM
[5]
  Ki: 8.59 nM
[6]
  Ki: 33 nM
[7]
  Ki: 3 nM

B17: AKG177 (peptide)
chain: Y[dA]G[NMeF][4‑Apac]PLW-{NH(3,5-(CF3)2-benzyl)}
modifications: reading uncertain
[11]
  Ki: 74.3 nM
[8]
  Ki: 5.28 nM
[9]
  Ki: 70 nM
[10]
  Ki: 1 nM

B18: AKG173 (peptide)
chain: Y[dA]G[NMeF][Orn]PLW
modifications: not fully specified (C-terminus)
[4]
  Ki: 15.5 nM
[5]
  Ki: 65.2 nM
[6]
  Ki: 0.05 nM
[7]
  Ki: 5 nM

B19: AKG132 (peptide)
chain: [Dmt][dA]G[NMeF]SPLW-NHBn
[4]
  Ki: 5.61 nM
[5]
  Ki: 31.1 nM
[6]
  Ki: 2 nM
[7]
  Ki: 0.4 nM

B20: AKG193 (peptide)
chain: XAGFPLW
modifications: Dmt1, D-Ala2, Phe(4-I)4; C-terminal NH-Bn(3',5'-(CF3)2)
[1]
  Ki: 6 nM

B21: AKG183 (peptide)
chain: XAGFPLW
modifications: Dmt1, D-NMeAla2, NMeGly3; C-terminal NH-Bn(3',5'-(CF3)2)
[3]
  Ki: 17.6 nM
[2]
  Ki: 2.49 nM

B22: AKG185 (peptide)
chain: XAGFPLW
modifications: Dmt1, D-NMeAla2, NMeGly3, NMePhe4; C-terminal NH-Bn(3',5'-(CF3)2)
[3]
  Ki: 74.8 nM
[2]
  Ki: 3.47 nM

B23: AKG113 (peptide)
chain: Y[dA]G[NMeF]GPLW-{NH(3,5-(CF3)2-benzyl)}
[11]
  Ki: 60.5 nM
[8]
  Ki: 15 nM
[9]
  Ki: 46 nM
[10]
  Ki: 3 nM

B24: AKG191 (peptide)
chain: XAGFPLW
modifications: Dmt1, D-Ala2, Phe(4-Cl)4; C-terminal NH-Bn(3',5'-(CF3)2)
[1]
  Ki: 2 nM
[12]
  Ki: 5 nM
[3]
  Ki: 26.5 nM

B25: AKG184 (peptide)
chain: XAGFPLW
modifications: Dmt1, D-NMeAla2, NMePhe4; C-terminal NH-Bn(3',5'-(CF3)2)
[3]
  Ki: 115 nM
[2]
  Ki: 2.84 nM

B26: AKG112 (peptide)
chain: YAGFXPLW
modifications: D-Ala2, NMePhe4, Nle5; C-terminal NH-Bn(3',5'-(CF3)2)
[8]
  Ki: 14 nM
[9]
  Ki: 22 nM
[10]
  Ki: 13 nM

B27: AKG182 (peptide)
chain: XAGFPLW
modifications: Dmt1, D-Ala2, NMeGly3, NMePhe4; C-terminal NH-Bn(3',5'-(CF3)2)
[3]
  Ki: 110 nM
[2]
  Ki: 5 nM

B28: AKG115 (peptide)
chain: XAGFPLW
modifications: Dmt1, D-Ala2, NMePhe4; C-terminal NH-Bn(3',5'-(CF3)2)
[1]
  Ki: 1 nM
[12]
  Ki: 5 nM
[3]
  Ki: 48.3 nM

B29: AKG126 (peptide)
chain: Y[dA]G[NMeF]SPLW-NHBn
[4]
  Ki: 0.86 nM
[5]
  Ki: 31.5 nM
[6]
  Ki: 63 nM
[7]
  Ki: 2 nM

B30: AKG125 (peptide)
chain: Y[dA]G[NMeF][4Amb′]PLW-{NH(3,5-(CF3)2-benzyl)}
modifications: reading uncertain
[11]
  Ki: 29.9 nM
[8]
  Ki: 2.27 nM
[9]
  Ki: 117 nM
[10]
  Ki: 5 nM

B31: AKG106 (peptide)
chain: Y[dA]G[NMeF]MPLW-NHBn
[11]
  Ki: 9.9 nM
[8]
  Ki: 1.47 nM

B32: AKG130 (peptide)
chain: Y[dA]G[Phe(4-F)]GPLW-{NH(3,5-(CF3)2-benzyl)}
[11]
  Ki: 72.5 nM
[8]
  Ki: 1.54 nM
[9]
  Ki: 5 nM
[10]
  Ki: 9 nM

B33: TY012 (peptide)
chain: Y[dA]GFPLW-{NH(3,5-(CF3)2-benzyl)}
[1]
  Ki: 9.5 nM
[3]
  Ki: 33 nM
[2]
  Ki: 0.6 nM

B34: AKG124 (peptide)
chain: Y[dA]G[NMeF][Ahx]PLW-{NH(3,5-(CF3)2-benzyl)}
[11]
  Ki: 44.3 nM
[8]
  Ki: 1.22 nM
[9]
  Ki: 31 nM
[10]
  Ki: 7 nM

B35: AKG038 (peptide)
chain: Y[dA]GFSPLW
modifications: not fully specified (C-terminus)
[4]
  Ki: 1.94 nM
[5]
  Ki: 206 nM
[6]
  Ki: 7 nM
[7]
  Ki: 127 nM

— US11141452 (dated 2021)
